Patent publication US20040047860A1 (published 2004)

Key:
[1] = biological target: T1, recombinant human eotaxin-1 (human, UniProt P51671 24-97); assay: BIAcore, 5 nM chemokine over ABN912, bound amount after 8 min, n = 3
T1 construct: also called rh eotaxin

[2] = biological target: T2, rh LEC (human, UniProt O15467 24-120); assay: as above
T2 sequence (looked up): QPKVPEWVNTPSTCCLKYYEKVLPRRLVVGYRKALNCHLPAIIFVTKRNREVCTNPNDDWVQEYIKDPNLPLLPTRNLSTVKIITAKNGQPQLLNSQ

[3] = biological target: rh MCP-3 (human, UniProt P80098 24-99); assay: as above
[4] = biological target: T3, rh MIP-1α (human, UniProt P10147 27-92, limits assumed); assay: as above
T3 sequence (looked up): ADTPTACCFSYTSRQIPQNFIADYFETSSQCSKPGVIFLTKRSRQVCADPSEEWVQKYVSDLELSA

[5] = biological target: T4, rh MIP-1β (human, UniProt P13236 24-92); assay: as above
T4 sequence (looked up): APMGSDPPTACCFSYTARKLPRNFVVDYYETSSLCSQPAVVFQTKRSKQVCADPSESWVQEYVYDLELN

[6] = biological target: T5, rh RANTES (human, UniProt P13501 24-91); assay: as above
T5 sequence (looked up): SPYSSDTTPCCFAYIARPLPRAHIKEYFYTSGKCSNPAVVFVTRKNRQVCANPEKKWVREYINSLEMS

[7] = biological target: T6, rh MCP-2 (human, UniProt P80075 24-99); assay: as above
T6 sequence (looked up): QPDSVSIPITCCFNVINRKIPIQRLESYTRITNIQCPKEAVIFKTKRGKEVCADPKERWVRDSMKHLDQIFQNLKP

[8] = biological target: rh MCP-4 (human, UniProt Q99616 24-98); assay: as above
[9] = biological target: recombinant human MCP-1 (human) (UniProt P13500); assay: SPA, inhibition of (125-I)-MCP-1 binding to membranes of CCR2B expressing CHO cells (CHO#84), three independent experiments
[10] = biological target: recombinant human MCP-1 (human) (UniProt P13500); assay: BIAcore, ABN912 immobilised, recombinant human MCP-1 in solution, n = 30
[11] = biological target: Rec rabbit MCP-1 (rabbit, UniProt P28292 24-125, limits assumed); assay: BIAcore, 5 nM chemokine over ABN912, bound amount after 8 min, n = 3
[12] = biological target: T7, Rec mouse JE/MCP-1 (mouse, UniProt P10148 24-96, limits assumed); assay: as above
T7 construct: also called mouse MCP-1

[13] = biological target: Rec guinea pig MCP-1 (guinea pig, UniProt Q08782 24-120, limits assumed); assay: as above
[14] = biological target: Rec rat MCP-1 (rat, UniProt P14844 24-148, limits assumed); assay: as above
[15] = biological target: Rec dog MCP-1 (dog, UniProt P52203 24-101); assay: as above
[16] = biological target: Rec pig MCP-1 (pig, UniProt P42831 24-99); assay: as above
[17] = biological target: recombinant human MCP-1 (human) (UniProt P13500); assay: BIAcore, 5 nM chemokine over ABN912, bound amount after 8 min
[18] = biological target: T8, MCP-1 mutant K49A (human, UniProt P13500 24-99); assay: BIAcore, mutant MCP-1 (0.75 to 4 nM) over ABN912 captured on anti-Fcγ
T8 construct: also called K49 to alanine
T8 sequence (P13500 24-99 K72A limits assumed): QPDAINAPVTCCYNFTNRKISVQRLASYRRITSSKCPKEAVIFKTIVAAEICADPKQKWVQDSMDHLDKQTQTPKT

Sequence of recombinant human MCP-1 (human) (P13500 24-99 limits assumed): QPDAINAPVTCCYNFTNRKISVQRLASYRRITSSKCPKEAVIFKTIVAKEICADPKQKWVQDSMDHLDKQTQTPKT
T1 sequence (P51671 24-97 limits assumed): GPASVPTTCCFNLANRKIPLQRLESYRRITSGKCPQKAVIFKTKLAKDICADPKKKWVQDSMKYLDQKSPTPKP
Sequence of Rec dog MCP-1 (P52203 24-101 limits assumed): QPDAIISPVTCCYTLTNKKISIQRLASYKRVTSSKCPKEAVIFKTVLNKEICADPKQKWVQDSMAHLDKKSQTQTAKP
Sequence of Rec rat MCP-1 (P14844 24-148 limits assumed): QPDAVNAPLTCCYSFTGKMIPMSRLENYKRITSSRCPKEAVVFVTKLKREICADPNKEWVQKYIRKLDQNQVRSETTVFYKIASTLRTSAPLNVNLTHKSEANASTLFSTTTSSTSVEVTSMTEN
Sequence of rh MCP-4 (Q99616 24-98 limits assumed): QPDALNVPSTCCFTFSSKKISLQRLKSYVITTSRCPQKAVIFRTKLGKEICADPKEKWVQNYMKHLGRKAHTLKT
Sequence of rh MCP-3 (P80098 24-99 limits assumed): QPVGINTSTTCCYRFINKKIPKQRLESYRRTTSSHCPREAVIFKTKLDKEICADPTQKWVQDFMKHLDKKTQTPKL
Sequence of Rec rabbit MCP-1 (P28292 24-125 limits assumed): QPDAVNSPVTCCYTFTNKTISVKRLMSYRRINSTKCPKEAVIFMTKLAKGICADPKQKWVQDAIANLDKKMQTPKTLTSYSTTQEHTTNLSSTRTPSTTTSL
Sequence of Rec guinea pig MCP-1 (Q08782 24-120 limits assumed): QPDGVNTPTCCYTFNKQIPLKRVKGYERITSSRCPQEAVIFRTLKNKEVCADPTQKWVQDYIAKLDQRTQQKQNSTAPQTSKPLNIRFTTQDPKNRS
Sequence of Rec pig MCP-1 (P42831 24-99 limits assumed): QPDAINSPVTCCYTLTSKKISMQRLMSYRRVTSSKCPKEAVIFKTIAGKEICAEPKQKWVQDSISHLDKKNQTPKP
T7 sequence (P10148 24-96 limits assumed): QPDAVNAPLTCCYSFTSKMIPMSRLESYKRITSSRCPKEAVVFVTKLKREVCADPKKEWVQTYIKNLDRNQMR

B1: ABN912 antibody (human IgG4/κ anti-human MCP-1 antibody) (antibody, V domains shown)
VH: EVQLVQSGGGLVQPGGSLRLSCAASGFTFSHYWMSWVRQAPGKGLEWLANIEQDGSEKYYVDSVKGRFTISRDNAKNSLYLQMNSLRAEDTAVYFCARDLEGLHGDGYFDLWGRGTLVTVSS
VL: AIQLTQSPSSLSASVGDRVILTCRASQGVSSALAWYQQKPGKAPKLLIYDASSLESGVPSRFSGSGSGPDFTLTISSLQPEDFATYFCQQFNSYPLTFGGGTKVEIK
Binding to ABN912 (percent compared to recombinant human MCP-1) [1]: 52.6%
Binding to ABN912 (percent compared to recombinant human MCP-1) [2]: -2.8%
Binding to ABN912 (percent compared to recombinant human MCP-1) [3]: 4.3%
Binding to ABN912 (percent compared to recombinant human MCP-1) [4]: -2.8%
Binding to ABN912 (percent compared to recombinant human MCP-1) [5]: -2.9%
Binding to ABN912 (percent compared to recombinant human MCP-1) [6]: -2.7%
Binding to ABN912 (percent compared to recombinant human MCP-1) [7]: 6.2%
Binding to ABN912 (percent compared to recombinant human MCP-1) [8]: -2.4%
IC50 [9]: 0.461 nM
Kd [10]: 0.043 nM
koff [10]: 0.0005 s⁻¹
kon [10]: 1.3e+07 M⁻¹ s⁻¹
Percent binding of ABN912 (compared to recombinant human MCP-1) [11]: 0.9%
Percent binding of ABN912 (compared to recombinant human MCP-1) [12]: -0.4%
Percent binding of ABN912 (compared to recombinant human MCP-1) [13]: 2.3%
Percent binding of ABN912 (compared to recombinant human MCP-1) [14]: -0.2%
Percent binding of ABN912 (compared to recombinant human MCP-1) [15]: 1.3%
Percent binding of ABN912 (compared to recombinant human MCP-1) [16]: 0.5%
Binding to ABN912 (percent compared to recombinant human MCP-1) [17]: 100%
Percent binding of ABN912 (compared to recombinant human MCP-1) [17]: 100%
fold decrease of affinity (against MCP-1) [18]: 133 fold
